Test results as given in PMC11761039.

Legend:
[1] = target: MBP-tagged G2L4 RT dimer interface Thumb mutant (R397/R398/R404A); experiment: native gel or EMSA
[2] = target: MBP-tagged wild-type G2L4 RT; experiment: SEC
[3] = target: MBP-tagged G2L4 RT dimer interface NTE + Thumb mutant (R12/Y15/R398A); experiment: native gel or EMSA

## MBP-tagged G2L4 RT dimer interface Thumb mutant (R397/R398/R404A) (enzyme)
[1]
  proportion of monomers: 25%

## MBP-tagged wild-type G2L4 RT (enzyme)
[2]
  stoichiometry N: 2

## MBP-tagged G2L4 RT dimer interface NTE + Thumb mutant (R12/Y15/R398A) (enzyme)
[3]
  proportion of monomers: 36%
